For data set [1], the system named is white blood cell (WBC) contents in peripheral blood. Kind of data set: Leukocyte content in blood, automated blood cell counter Sysmex XT-2000i. In kind it is in vivo, C57BL/6J mice. Conditions: single dose (HA derivatives 500 μg i.v.; pegfilgrastim 25 μg s.c.); 5 days (FIG. 2C). Here is the method: (§1) Adult (8-10 weeks) female, age-matched C57BL/6J (Jackson stock nr 000664, the Charles River Laboratories) CD45.2 mice were used in the in vivo mobilization experiments. The acclimatization period was always at least 7 days before the experiments. The animals were individually identified by ear and tail numbering and were housed in a Scantainer (Scanbur A/S, Karlslunde, Denmark) in Makrolon III cages. The animal room temperature was 21±2° C. and humidity was between 40-60%. Lightning was artificial, 12 h light and 12 h dark. The mice were provided with irradiated fodder and normal tap water ad libitum. Average weight of all animals in the experiments was 18.8±1.5 g. No formal randomization or grouping was done. Animals were randomly allocated to the study groups. All animals were weighed before the first dosing and in the end of each study.
(§2) Sterile filtered PBS (pH 7.2) served as vehicle in all studies and was injected intravenously in the tail vein in similar volumes (50 or 100 μl) and time-points as the other test items within each study. […]
(§3) The leukocyte, erythrocyte and platelet contents were determined for all blood samples by automated blood cell counter Sysmex XT-2000i by diluting the mouse blood 1:4 with 0.9% NaCl.
(§4) Complete blood counts (numbers of white blood cells, mature red blood cells and platelets) of mouse peripheral blood were determined with automated blood cell counter.

Data set [2] relates to circulating hematopoietic progenitor cells (HPCs) in peripheral blood. As to the kind of experiment: Peripheral blood stem cell mobilization, colony forming unit (CFU) assay on peripheral blood mononuclear cells. Format: in vivo, C57BL/6J mice. The procedure:
as §1
(§5) Sterile filtered PBS (pH 7.2) served as vehicle in all studies and was injected intravenously in the tail vein in similar volumes (50 or 100 μl) and time-points as the other test items within each study. Recombinant pegylated granulocyte-colony stimulatory factor (G-CSF), pegfilgrastim (Neulasta™, Amgen), with the stock concentration 10 mg/ml, was diluted immediately before the injections in sterile filtered PBS (pH 7.2) to yield a 0.25-0.5 mg/ml dosing solution. The animals obtained 25 μg pegfilgrastim (Neulasta™) subcutaneously at a dose volume of 50 or 100 μl on study day 0. The LMW hyaluronic acid derivatives HA and 6-O-S HA were prepared for injections into sterile filtered PBS in 5-10 mg/ml solutions and injected intravenously in the tail vein in dose volumes of 50 or 100 μl yielding 500 μg doses/mouse.
The LMW hyaluronic acid (HA) derivatives were tested for capability to mobilize hematopoietic stem and progenitor cells to peripheral blood after 500 μg i.v. injections at the following time-points: 4h, 1d, 2d, 3d and 5d post-injections. Repetitive dosing was tested with daily 500 μg i.v. injections and sampling was done either on experimental days 2 (after 3 doses) or 5 (after 6 doses) after the first injection on day 0. Abnormal clinical signs or mortality was not observed with the LMW HA derivatives with 500 μg doses. […]
Mononuclear cells were isolated by carefully overlaying 3 ml Ficoll-Paque® (GE Healthcare) with peripheral blood diluted 1:2 in phosphate buffered saline (PBS)-2 mM EDTA. […] Mononuclear cell yields were counted using a Bürker chamber.
Myeloid hematopoietic progenitor cells were further enumerated by the colony forming unit (CFU/CFC) assay. Progenitor cells that are restricted in their lineage potential and that have limited self-renewal capability can be detected in colony-forming cell (CFC) assays using semisolid media such as methylcellulose, agar or collagen. […]

The subject of data set [3] is spleen. Kind of data set: Spleen weights after mobilization studies. In kind it is in vivo. Conditions: 25 μg s.c. The procedure: as §1
Sterile filtered PBS (pH 7.2) served as vehicle in all studies and was injected intravenously in the tail vein in similar volumes (50 or 100 μl) and time-points as the other test items within each study. Recombinant pegylated granulocyte-colony stimulatory factor (G-CSF), pegfilgrastim (Neulasta™, Amgen), with the stock concentration 10 mg/ml, was diluted immediately before the injections in sterile filtered PBS (pH 7.2) to yield a 0.25-0.5 mg/ml dosing solution. […]

Data set [4] deals with red blood cell (RBC) contents in peripheral blood. Kind of data set: Erythrocyte content in blood, automated blood cell counter Sysmex XT-2000i. In kind it is in vivo, C57BL/6J mice. To be noted: 25 μg s.c. Here is the method: as §1, §2, §3, §4
For data set [5], the system named is hematopoietic cell populations of mouse peripheral blood. As to the kind of experiment: Immunophenotypic profiling of peripheral blood by flow cytometry. Format: in vivo, C57BL/6J mice. Conditions: pegfilgrastim 25 μg s.c. −5 days. Here is the method: as §1, §5
The LMW hyaluronic acid (HA) derivatives were tested for capability to mobilize hematopoietic stem and progenitor cells to peripheral blood after 500 μg i.v. injections at the following time-points: 4h, 1d, 2d, 3d and 5d post-injections. Repetitive dosing was tested with daily 500 μg i.v. injections and sampling was done either on experimental days 2 (after 3 doses) or 5 (after 6 doses) after the first injection on day 0. Abnormal clinical signs or mortality was not observed with the LMW HA derivatives with 500 μg doses. The LMW HA derivatives were also tested in combination with a single dose of pegfilgrastim (Neulasta™). In combinatorial G-CSF+LMW HA studies, pegfilgrastim was always injected s.c. at experimental day 0 and the LMW HA derivatives were administered i.v. as • a) single doses of 500 μg at experimental day 3, • b) single doses of 500 μg 1 or 4 hours before sampling, or • c) as repetitive doses of 500 μg daily from experimental day 0-5 (in total 6 doses).
Flow cytometric analysis was performed on FACSAria (Becton Dickinson Biosciences) with a 488-nm argon laser for (PE, FITC and PE-Cy7), a 633-nm hene laser for (APC and APC-Cy7). Fluorescense was measured using 530/30-nm (FITC), 585/42-nm (PE), 780/60-nm (PE-Cy7), 660/20-nm (APC) and 780/60 (APC-Cy7) bandpass filters.
Peripheral mouse blood was diluted 1:5 in 0.9% NaCl (Baxter). Fluorescence labels (ebiosciences, except APC-CD45 BD Biosciences): 0.04 μg phycoerythrin (PE)-conjugated CD11c (dendritic cells; clone N418; cat#12-0114), fluorescein isothiocyanate (FITC)-conjugated 0.3 μg TER-119 (erythroid cells; clone TER-119; cat#11-5921), 0.1 allophycocyanin (APC)-conjugated CD314 (natural killer cells; clone CX5; 17-5882), 0.08 μg APC-Cyanine 7 (Cy7)-conjugated CD3e (T cells; clone 17A2; cat#27.0032) and 0.04 μg PE-Cy7 conjugated CD45R (B cells; RA3-6B2; 25-0452) were combined in one tube and 0.08 μg PE-conjugated CD115 (for monocytes and macrophages; clone AFS98; cat#12-1152), 0.2 μg FITC-conjugated-CD41 (megakaryocytes and hematopoietic progenitors; clone MWReg30; cat#11-0411), 0.08 μg APC-conjugated CD45 (leukocytes; clone 30-F11; cat#559864) and 0.03 μg PE-Cy7-conjugated LY-6G (neutrophils; clone RB6-8C5; cat#25-5931) were combined in another tube, incubated for 30 minutes on ice protected from light. […]
In general terms: Flow cytometry measures light scatter and fluorescence of single cells or particles in a stream.

Data set [6] deals with SLAM+ cells (CD150+CD48−CD45+) in peripheral blood. As to the kind of experiment: SLAM immunophenotyping by flow cytometry. Format: in vivo, C57BL/6J mice. Conditions: pegfilgrastim 25 μg s.c. day 0; combination + single 500 μg i.v. one hour before sampling (FIG. 14). The procedure: as §1, with “No formal randomization or grouping was done. Animals were randomly allocated to the study groups. All animals were weighed before the first dosing and in the end of each study.” left out
The enrichment of long-term repopulating (LTR) hematopoietic stem cells was detected with representation of SLAM markers. […] CD45+ cells expressing CD150, but not CD48 cell surface markers were determined as a population highly enriched with LTR hematopoietic stem cells.
Although mobilization of HPCs may be of use for short-term repopulation in clinical settings, long-term repopulation and reconstitution of the hematopoietic cell system in a transplant recipient demands the presence of mobilized long-term repopulating hematopoietic stem cells (LTR-HSCs). […] The presence of SLAM (CD150+CD48−CD45+) positive cells in mouse blood was determined by flow cytometry after vehicle, pegfilgrastim or pegfilgrastim +6-O-S LMW HA dosing. […]

The test system of data set [7] is hematopoietic progenitor cells (HPCs) in the bone marrow. As to the kind of experiment: CFU assay on bone marrow mononuclear cells. In kind it is in vivo, C57BL/6J mice. To be noted: single 25 μg s.c. at day 0, samples at day 5, 1×10^5 mononuclear cells. The procedure: as §1, with “All animals were weighed before the first dosing and in the end of each study.” left out
Myeloid hematopoietic progenitor cells were further enumerated by the colony forming unit (CFU/CFC) assay. Progenitor cells that are restricted in their lineage potential and that have limited self-renewal capability can be detected in colony-forming cell (CFC) assays using semisolid media such as methylcellulose, agar or collagen. Progenitors that read out in culture assays can either be multipotent, e.g. capable of generating progeny of multiple blood cell types, or restricted to one or two lineages, e.g. erythrocytes, granulocytes, monocyte/macrophages or platelets. […]

“Also recorded” adds a separate entry of the source.

Results on 1 molecule are retold here after patent US8546353B2, “Compounds and combinations” (priority 2010, dated 2013).

B1: pegfilgrastim (protein, chains of the INN, looked up)
chain: TPLGPASSLPQSFLLKCLEQVRKIQGDGAALQEKLCATYKLCHPEELVLLGHSLGIPWAPLSSCPSQALQLAGCLSQLHSGLFLYQGLLQALEGISPELGPTLDTLQLDVADFATTIWQQMEELGMAPALQPTQGAMPAFASAFQRRAGGVLVASHLQSFLEVSYRVLRHLAQP
modifications: N-terminal methionine, PEG
As for B1, in data set [1], the “WBC counts 5 days after single dose” value is on record as “remained high”. Besides, in data set [2] (Neulasta 25 μg s.c. day 0, sampling day 5, combination: 500 μg i.v. 1 hour before sampling (FIG. 10A)), the “mean CFU colonies” value is reported as 18.8 colonies/10^5 mononuclear cells. For the same molecule, the “time of peak of HPC mobilization after s.c. injection” value in data set [2] (single 25 μg s.c.) turned out to be 5 days. For the same molecule, the “number of circulating HPCs in mouse peripheral blood, increase over background” value in data set [2] (single 25 μg s.c. at day 0, samples at day 5, CFU, 1×10^5 mononuclear cells) is 40-50 fold. Moreover, in data set [2] (single 25 μg s.c. injection (FIG. 9A)), the “mobilization of circulating HPCs” value was “robust mobilization of circulating HPCs”. The “spleen swelling 3 days after single s.c. injection” value in data set [3] (3 days (FIG. 8A left panel)) was “evident”. Also, the “spleen swelling two days after s.c. injection” value in data set [3] (two days) was “evident”. Also, the “numbers of mature RBC 2 days after s.c. injection” value in data set [4] (2 days) was “elevate the numbers of mature RBC”. Further, in data set [4] (5 days, occasionally seen (FIG. 4C)), the “RBC elevation 5 days after s.c. injection” value is listed as “normalize back to control levels”. In addition, in data set [5] (combination + 500 μg i.v. 1 hour before sampling (FIG. 11A), listed as G-CSF), the “levels of circulating monocytes, neutrophils and eosinophils (MNEs) as a pool” value is recorded as “robust increase; also recorded: dramatically increased”. In addition, the “granulocytes within the MNEs” value in data set [5] (combination + 500 μg i.v. 1 hour before sampling (FIG. 11B)) is “proliferated”. The “levels of monocytes and macrophages as a pool” value in data set [5] (combination + 500 μg i.v. 1 hour before sampling (FIG. 11C)) is on record as “decreased”. Also, the “levels of CD45+CD115+ progenitors” value in data set [5] (combination + 500 μg i.v. 1 hour before sampling (FIG. 12A)) was “increased”. Further, in data set [5] (combination + 500 μg i.v. 1 hour before sampling (FIG. 12B)), the “levels of CD45+CD41+ progenitors” value was “decreased from control levels”. In data set [5] (combination + 500 μg i.v. 1 hour before sampling (FIG. 12C)), the “levels of Ter-119+ proerythroblasts” value is “decrease”. In addition, the “levels of megakaryocytes and platelets” value in data set [5] (combination + 500 μg i.v. 1 hour before sampling (FIG. 12D)) is “decreased levels of megakaryocytes and platelets”. Further, the “levels of peripheral blood lymphocytes” value in data set [5] (combination + 500 μg i.v. 1 hour before sampling (FIG. 13A)) was “increased”. The “CD3+ T-cells within the lymphocyte population” value in data set [5] (combination + 500 μg i.v. 1 hour before sampling (FIG. 13B)) was “increase”. Moreover, in data set [5] (combination + 500 μg i.v. 1 hour before sampling (FIG. 13C)), the “NK (CD314+) cell levels” value is given as “remained unaltered”. Also, the “CD45R+ B-cells within the lymphocyte population” value in data set [5] (combination + 500 μg i.v. 1 hour before sampling (FIG. 13D)) is given as “decrease”. For the same molecule, the “levels of circulating SLAM+ cells (CD150+CD48−CD45+)” value in data set [6] is recorded as “dramatically increased”. The “number of HPCs in the bone marrow, decrease” value in data set [7] is “over 2 fold”.
